The results in this text go back to patent US20210380977, “MYOCARDIAL ENHANCER RNA AND METHODS OF USE” (THE TRUSTEES OF INDIANA UNIVERSITY, published 2021).

Positions count from the first letter of the chain named.

For data set [1], the target named is T1, CTCF (UniProt P49711 P49711:1-727).
T1 sequence: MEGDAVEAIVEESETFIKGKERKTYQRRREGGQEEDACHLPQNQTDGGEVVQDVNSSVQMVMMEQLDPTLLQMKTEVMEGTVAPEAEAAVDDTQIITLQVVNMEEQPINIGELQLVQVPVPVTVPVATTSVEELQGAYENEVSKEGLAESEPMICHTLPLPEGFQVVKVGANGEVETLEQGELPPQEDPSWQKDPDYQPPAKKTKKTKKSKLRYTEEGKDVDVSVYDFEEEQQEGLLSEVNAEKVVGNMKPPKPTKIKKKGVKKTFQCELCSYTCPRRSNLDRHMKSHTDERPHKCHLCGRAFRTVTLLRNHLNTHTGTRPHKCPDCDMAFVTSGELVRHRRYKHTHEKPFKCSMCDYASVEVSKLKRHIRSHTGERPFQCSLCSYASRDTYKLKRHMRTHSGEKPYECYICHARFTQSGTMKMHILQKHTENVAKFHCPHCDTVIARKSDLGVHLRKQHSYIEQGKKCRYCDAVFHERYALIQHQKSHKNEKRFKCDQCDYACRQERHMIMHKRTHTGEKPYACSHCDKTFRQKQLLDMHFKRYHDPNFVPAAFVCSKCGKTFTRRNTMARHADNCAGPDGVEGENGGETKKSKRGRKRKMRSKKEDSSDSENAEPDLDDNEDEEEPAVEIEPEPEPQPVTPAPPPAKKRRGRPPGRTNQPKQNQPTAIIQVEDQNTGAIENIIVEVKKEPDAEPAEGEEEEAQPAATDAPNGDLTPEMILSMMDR
Put plainly: EMSA; 200 ng CTCF, 10 mM HEPES pH 7.3, 10 mM NaCl, 1 mM MgCl2, 5 ug tRNA, RT. The following applies: tags: Abnova H00010664-P01; label: 5' biotin on the reverse complementary strand. As to the method:
(§1) All these biotin-labelled probes were incubated with 200 ng CTCF recombinant proteins (H00010664-P01, Abnova) in 20 μl 1× binding buffer (10 mM HEPES-KOH, pH 7.3, 10 mM NaCl, 1 mM MgCl₂, 1 mM DTT) with 5 μg tRNA carrier at room temperature for 30 min. The reactions were then loaded onto 6% Novex TBE gels (EC6265BOX, Thermo Fisher Scientific) and transferred to Bright Star-Plus positive charged membrane (AM10110, Thermo Fisher Scientific). Biotin-labeled probes were detected by Chemiluminescent Nucleic Acid Detection Module (89880, Thermo Fisher Scientific) using Odyssey Imaging System (LI-COR).
(§2) We next asked whether Brg1 or its associated factor could bind to Uhrt-eDNA hybrid. We first investigated the role in eDNA looping of CCCTC-binding factor (CTCF), a regulator protein essential for chromatin looping and three-dimensional structure formation. CTCF contains 11 highly conserved zinc finger domains, capable of binding to specific double-stranded DNA sequence to cause chromatin looping. We found a CTCF consensus binding motif (AGGGGGTGG; SEQ ID NO: 43) on eDNA near the conserved MEF2A and GATA4 sites. ChIP analysis of heart tissues verified CTCF was enriched on eDNA region in E13.5 hearts, whereas its occupancy on eDNA dropped by 42% in normal adult hearts, but was increased by 81% and restored to fetal levels by TAC, while CTCF protein levels remained unchanged. […]

Data set [2] has as its target T1, CTCF. Put plainly: EMSA; mutation disrupted CTCF binding. The following applies: tags: Abnova H00010664-P01; label: 5' biotin. As to the method:
as §1, §2

B1: eDNA CTCF site dsDNA probe (dsDNA)
DNA 1: GGTCAGCCACACAACAGAGGGGGTGGCACAGCTCTTGGGA
DNA 2: TCCCAAGAGCTGTGCCACCCCCTCTGTTGTGTGGCTGACC
As for B1, the binding result in data set [1] is listed as “binds”.

B2: mutant CTCF site dsDNA probe (dsDNA)
DNA 1: B1 DNA 1 with G19A, G20A, G21A, G22A, G23A
DNA 2: B1 DNA 2 with C18T, C19T, C20T, C21T, C22T
For B2, the binding result in data set [2] is on record as “no binding”.
